Test results published in the RNAGym collection of RNA variant scans (doi:10.7554/elife.90254).

B1: LINE1-mini (parent)
chain: GGCAGAGCUCAACACAGCGUGGCAAAGUGGCUGUGGCUAGACUGCC

Variants of: B1
Assay: self-cleavage, relative activity (ratio to wild type); higher = more cleavage; in vitro, sequencing; the parent is a self-cleaving ribozyme

Variant	self-cleavage
G2U G44A	0.08
G2U G44U	0.06
G2U G44C	0.09
G2C C15G	0.02
G2C C15A	0.06
G2C C15U	0.11
G2U G33U	0.04
G2U G33A	0.03
G2U G33C	0.02
C3A A4G	0.17
C3A A4C	0.25
C3A A4U	0.38
G2U G30A	0.09
G2U G30C	0.1
G2U G30U	0.1
G2U C42U	0.1
G2U C42G	0.02
G2U C42A	0.06
G2U G27U	0.06
G2U G27A	0.15
G2U G27C	0.09
C3A A14G	0.61
C3A A14U	0.27
C3A A14C	0.16

Variant	self-cleavage
G2C G5A	0.05
G2C G5C	0.02
G2C G5U	0.03
C3A C15A	0.24
C3A C15G	0.09
C3A C15U	0.41
G2U G7A	0.07
G2U G7U	0.05
G2U G7C	0.04
C3A C42G	0.08
C3A C42A	0.33
C3A C42U	0.26
G2U U32C	0.03
G2U U32A	0.03
G2U U32G	0.03
G2U C46G	0.1
G2U C46A	0.09
G2U C46U	0.06
C3A G22C	0.58
C3A G22U	0.71
C3A G22A	0.52
G2U A24G	0.06
G2U A24C	0.07
G2U A24U	0.19

Variant	self-cleavage
G2U C18G	0.03
G2U C18U	0.05
G2U C18A	0.03
G2C G27C	0.12
G2C G27U	0.14
G2C G27A	0.13
G2U C45G	0.23
G2U C45U	0.11
G2U C45A	0.45
G2U A4C	0.07
G2U A4U	0.08
G2U A4G	0.12
G2U G40U	0.04
G2U G40A	0.03
G2U G40C	0.03
G2U U38G	0.02
G2U U38A	0.05
G2U U38C	0.05
G2U G36C	0.05
G2U G36A	0.05
G2U G36U	0.04
G2C C37A	0.06
G2C C37G	0.05
G2C C37U	0.06

Variant	self-cleavage
C3A A11C	0.04
C3A A11U	0.06
C3A A11G	0.06
C3A A25G	0.29
C3A A25C	0.41
C3A A25U	0.79
G2C G33C	0.02
G2C G33A	0.04
G2C G33U	0.05
G2C C8A	0.17
G2C C8G	0.08
G2C C8U	0.18
G2C G40U	0.13
G2C G40C	0.07
G2C G40A	0.09
G2U G21U	0.14
G2U G21A	0.25
G2U G21C	0.09
G2U A11U	0.03
G2U A11C	0.01
G2U A11G	0.02
G2C G17C	0.05
G2C G17U	0.06
G2C G17A	0.08

Variant	self-cleavage
C3A G17U	0.2
C3A G17C	0.31
C3A G17A	0.16
G2U C23U	0.15
G2U C23A	0.16
G2U C23G	0.04
C3A G27U	0.62
C3A G27A	0.31
C3A G27C	0.24
G2U U20C	0.05
G2U U20A	0.07
G2U U20G	0.05
G2U G19A	0.08
G2U G19C	0.03
G2U G19U	0.05
G2C G30C	0.23
G2C G30U	0.29
G2C G30A	0.24
G2U U28G	0.04
G2U U28A	0.07
G2U U28C	0.06
G2C G29U	0.19
G2C G29C	0.06
G2C G29A	0.1

Variant	self-cleavage
G2U C37G	0.04
G2U C37A	0.03
G2U C37U	0.05
G2U C15U	0.05
G2U C15G	0.02
G2U C15A	0.04
G2U A14U	0.04
G2U A14C	0.01
G2U A14G	0.08
G2C U38G	0.03
G2C U38C	0.04
G2C U38A	0.06
G2U A25C	0.05
G2U A25G	0.03
G2U A25U	0.08
G2C U28G	0.05
G2C U28A	0.23
G2C U28C	0.09
G2U	0.09
C3A C46U	0.41
C3A C46A	0.4
C3A C46G	0.29
C3A G7C	0.13
C3A G7A	0.97

Variant	self-cleavage
C3A G7U	0.4
G2C U20G	0.05
G2C U20A	0.06
G2C U20C	0.08
G2U G17C	0.05
G2U G17A	0.03
G2U G17U	0.04
G2C A39U	0.1
G2C A39C	0.09
G2C A39G	0.09
G2C C3U	0.54
G2C C3A	0.42
G2C C3G	0.07
C3A A16U	0.13
C3A A16C	0.12
C3A A16G	0.22
C3A	0.58
C3A C10G	0.05
C3A C10A	0.07
C3A C10U	0.19
C3A G5A	0.5
C3A G5C	0.31
C3A G5U	0.28
